Data published in paper PMC2990977.

Target: 80S ribosome from Thermomyces lanuginosus (Thermomyces lanuginosus)
Assay: co-sedimentation

occupancy relative to Sordarin-trapped eEF2: 60 to 70% | percent eEF2 bound (GDP only): 16%
Substance: eukaryotic elongation factor 2 (eEF2) from Thermomyces lanuginosus (natural protein)
